Earlier results, collected in publication PMC12283743.

Tested on: H. pylori surface recombinant antigen (not named) (Helicobacter pylori)
Details: target of the Kd cut off in the material (recombinant antigen or cells); Sensor only: bacteria incubated 40 min on the aptamer electrode, detection in PBS pH 7.0 (0.1 M for CV), room temperature; conditions of the cited Kd not given

Sequence: AGTGTGCTCTTCTCAGGTCTCGGCGCGGTTGTGGGTACCTAGGGTTGTTGTTGCTTCTCAGCAGTGTCTCAGCATACGCA [H. pylori aptamer]
- Kd: 26 nM
